Measured values as given in the DeepSol protein solubility set.

Test: soluble on expression in E. coli; label from the status in PepcDB or PDB records
With “MAHHHHHHMVNQTPHIVILSYDEEKINKFVSFLMSTFEPLESYEKAETYKLTFDRNDFHSGNGSSFAFKEVAKVAIVNKYYSAEVTISSCVVQSGENALRVEGSMPNGGLPDEANLPNGGLPDEANTPKMDLPDGAKPELQNQANELDAKDILCESVIFLFNNFTKKEKNIVNGNPFRSYDEECVEYIKDPESQQMIRNTHFDFSNLYKDVGIKIAIFPSSLEKDNKDIVNFFSDYFIECLYINYESAFLAEGGGQDDGHPSCPEEGDQNVKEEKTLLREFEEQEDDERLVEALHCHMWKGLQIKRDHLIIQHRGDFPMGEAFKGDEAARKGEKTPQKDEASPNGEKTPQKDEAAPNGENPPQRDAPATSGAAKIDLSGTLANSAKTPEGQKEELFMENFNKIVEKIRVAKMENKNCSNHAARRKKAEEIIFELQQYFCDIDGE” the “soluble on expression in E. coli” value was “not soluble”.
With “MGHHHHHHSHMTSETPDYLLKYAAISSSEQRQSYKNDFNAEYSEYRDLHARIERITRRFTQLDAQLRQLSQGSEEYETTRGQILQEYRKIKKTNTNYSQEKHRCEYLHSKLAHIKRLIAEYDQRQLQAWP” the “soluble on expression in E. coli” value was “soluble”.
With “MSLKVTIKDIATICGVSAGTVDRALNNRTGISEKTREKILKTAKELNYRPDYTARSLVMGKTMTIGVVLFDLYNRSFAQLLNAIELKARELGYFIYITLSDKNPENELNCIEHLVNRKVDGIILFTVNKGEQFEANLSKWGIPIITIFNYVSEKWEYIGIQERQAMKEAVDYIASKRYKKFIYISPPLTYLGKNNIYTQEERLNGFYDGLKSNGITSKPLIIKNSEYIKELDNITFSQDGKVAIVCATDLYALEVMNYLKEKGFNIPEQVGVMGFDDIDMLKYITPRLTTVKYPIDEIGRRAIESMVNKINHGHFISTPLLNYQIIKGESIEGHHHHHH” the “soluble on expression in E. coli” value was “soluble”.
In the case of “MSNFISPVYEIKSIPIEKISPNDYNPNSVAPPEMKLLYDSIKSDGYTMPIVCYYDKEEDRYSIVDGFHRYRIMLDYSDIYERESGRLPVSVIDKSLDYRMASTIRHNRARGSHDVDLMSQIVKDLHECGRSDNWIAKHLGMDKDEILRLKQITGLASLFKDHEFNQSWEPEELLNE”, the “soluble on expression in E. coli” value is reported as “soluble”.
With “LPGRFQRSDVERVVTACSAALGLSSACLRALLVMVHATRPSDWRDEQRDAVCFMQQVQVAARLGVTPRALRYQEARLERLGLLRRNVAADGSRGRFGGGDLIQGISFAPLIEAFPSLLRIAEQLEAAERERQVLRRRVSAARRILSQTLTRLAALDKAVPGLTEVLASMPRRYDALDGSELGALLQRVDKAAREALRHLEVQQVSSGVPENSFRPHIQDTTQENPVCSGSSAIERTARKRADSIKPDAAPDGTASCYEKKHGLADRGFKPRYLDTFTPTQLYEAASPDMQMYLDAGRRSDSTLTAHDFIQAAIAILPALGVNASAWDEAADTMGDLPAALCVLVLDANRYRPVNPVWSPGGMLRAMTARARSGGLNLHGSLIALQRRAG” the “soluble on expression in E. coli” value was “not soluble”.
With “MNDAPPFDLDAYLARIGYTGPRNASLDTLKALHFAHPQAIPFENIDPFLGRPVRLDLAALQDKIVLGGRGGYCFEHNLLFMHALKALGFEVGGLAARVLWGQSEDAITARSHMLLRVELDGRTYIADVGFGGLTLTAPLLLEPGREQKTPHEPFRIVEADDHFRLQAAIGGDWRSLYRFDLQPQYEVDYSVTNYFLSTSPTSHFLSSVIAARAAPDRRYALRGNRLSIHHLGGRTEQTEIATAADLADTLQGLLGIIIPDRTAFEAKVRETKIVETNA” the “soluble on expression in E. coli” value was “soluble”.
In the case of “MGSDKIHHHHHHMMILIQSRGKMKCKELSEELEVSERQIKSYKMYLEQAGIFINSTPGIYGGYEIDKCNSISLIKLLDSEVSILDMINSQLEYNNDIYKNEFNNIVEKIKAVLNTGEKSDTYMDYFTVQAQRNCDYESEKNKCNEIIRAYTTKHKFWIEYYSLNSGNSERIVHPYGLFNYKSDTYMVAFCEKRFKFIDFKLCRIKDYKVLEEKYNVDKSFSWDEYSKNSIGIYKGEEINVVIKISHPFSTIIKEKVWVNNQQIIEYDDKSIMFKAKMRGYEEIKSWILSMGAYVEVVEPDRLRNDILSEIEKMKKIY”, the “soluble on expression in E. coli” value is reported as “not soluble”.
In the case of “MKKKIESYQGAAGGWGAVKSVANAVRKQMDIRQDVIAMFDMNKPEGFDCPGCAWPDPKHSASFDICENGAKAIAWEVTDKQVNASFFAENTVQSLLTWGDHELEAAGRLTQPLKYDAVSDCYKPLSWQQAFDEIGARLQSYSDPNQVEFYTSGRTSNEAAFLYQLFAREYGSNNFPDCSNMCHEPTSVGLAASIGVGKGTVLLEDFEKCDLVICIGHNPGTNHPRMLTSLRALVKRGAKMIAINPLQERGLERFTAPQNPFEMLTNSETQLASAYYNVRIGGDMALLKGMMRLLIERDDAASAAGRPSLLDDEFIQTHTVGFDELRRDVLNSEWKDIERISGLSQTQIAELADAYAAAERTIICYGMGITQHEHGTQNVQQLVNLLLMKGNIGKPGAGICPLRGHSNVQGDRTVGITEKPSAEFLARLGERYGFTPPHAPGHAAIASMQAICTGQARALICMGGNFALAMPDREASAVPLTQLDLAVHVATKLNRSHLLTARHSYILPVLGRSEIDMQKNGAQAVTVEDSMSMIHASRGVLKPAGVMLKSECAVVAGIAQAALPQSVVAWEYLVEDYDRIRNDIEAVLPEFADYNQRIRHPGGFHLINAAAERRWMTPSGKANFITSKGLLEDPSSAFNSKLVMATVRSHDQYNTTIYGMDDRYRGVFGQRDVVFMSAKQAKICRVKNGERVNLIALTPDGKRSSRRMDRLKVVIYPMADRSLVTYFPESNHMLTLDNHDPLSGIPGYKSIPVELEPSN”, the “soluble on expression in E. coli” value is reported as “not soluble”.
In the case of “GSNEIKRGAVDLIKTGVNEKAMAGAVFSLFKKDGTEVKKELATDANGHIRVQGLEYGEYYFQETKAPKGYVIDPTKREFFVKNSGTINEDGTITSGTVVKMEVKNNEEPTIDKKINGKLEALPINPLTNYNYDIKTLIPEDIKEYKKYVVTDTLDNRLVIQGKPIVKIDGAEVNANVVEVAIEGQKVTATVKDFTKMDGKKEFHLQIKSQVKEGVPSGSEILNTAKIHFTNKNDVIGEKESKPVVVIPTTGIIELTKIDSANKNKMKGAEFVLKDNNGKIVVVAGKEVTGVSDENGVIKWSNIPYGDYQIFETKAPTYTKEDGTKTSYQLLKDPIDVKISENNQTVKLTIENNKS”, the “soluble on expression in E. coli” value is reported as “soluble”.
In the case of “MGSDKIHHHHHHMVNNVDVYYEGWGERWQWGRLASSTALTGRPLIMFEYSEEAIRRGLELSSLRLPLNGPRLSRGFPSYQLGLPGPVYDALPDGWGMLLMDRLFRLRGLNTARIGPLERLTYIGSNAMGAMSFEPSQPEASAVSEDIPLAQLSAEVQEVLDGEGGEFLQRLLQMGGSPQGARPKALLYCDPDTKTLTTSAASGLDAWLFKFPAKQEHPEVCAIEAVYAQCLRECHIHTPDTEYIELPNGQAAFASRRFDRQNGLRIPMQSLAAFTEANYQSPGSLDYANFLRATQICTNDVREKVLAFERVVFNVIFNNRDDHTKNFAYIMSSSGQWKLAPAYDVTYCEGPGGYHQMDVMGEALEISRELIHRLGVQEADLTSSQVDIIIEQYGEVAASFAKRAAGMFPGCITQDTLRTIQDRINDNIRCLQKR”, the “soluble on expression in E. coli” value is reported as “not soluble”.
In the case of “MAHHHHHHMLKVSSKEHYAEIKKKAEDSLGLVVHFSATWCEPCTAVNEHLTKQAAEYGDNVVFAEVDCGELGDVCEAEGVESVPFVAYFRTPLVGDDRRVERVADVAGAKFDQIDMNTHSLFGEKGGNRGSAEGLCHSGRLPALPHEAARGRNVHHRHPISSALRLYWSAV”, the “soluble on expression in E. coli” value is reported as “not soluble”.
In the case of “MPYKEKDIEKKYFSIGEVSAMFKVAPSLIRFWETEFDIFKPQKNRRGNRQFTKEDIENFRLIYNLVKERGYTLQGAKEMLKVDRHKSKDKMELLDSLQKVRDFLVDLKKQME”, the “soluble on expression in E. coli” value is reported as “not soluble”.
With “SNAMKRKVQVKNITIGEGRPKICVPIIGKNKKDIIKEAKELKDACLDIIEWRVDFFENVENIKEVKEVLYELRSYIHDIPLLFTFRSVVEGGEKLISRDYYTTLNKEISNTGLVDLIDVELFMGDEVIDEVVNFAHKKEVKVIISNHDFNKTPKKEEIVSRLCRMQELGADLPKIAVMPQNEKDVLVLLEATNEMFKIYADRPIITMSMSGMGVISRLCGEIFGSALTFGAAKSVSAPGQISFKELNSVLNLLHKSIN” the “soluble on expression in E. coli” value was “soluble”.
For “ETVQVNLPVSLEDLFVGKKKSFKIGRKGPHGASEKTQIDIQLKPGWKAGTKITYKNQGDYNPQTGRRKTLQFVIQEKSHPNFKRDGDDLIYTLPLSFKESLLGFSKTIQTIDGRTLPLSRVQPVQPSQTSTYPGQGMPTPKNPSQRGNLIVKYKVDYPISLNDAQKRAIDENF”, the “soluble on expression in E. coli” value was “soluble”.
In the case of “SNAMNNIRLLNQNDLDSYIELMKFGHHNYEWDRYYLENVSIDRLKTILSNHTDYWNIFGAFEDDELVATCTLKQMNYVGKCHKAILENNFVKNNDEIVNRELINHIIQYAKEQNIETLMIAIASNNISAKVFFSSIGFENLAFEKNASKIGNEYFDENWLIYSTTESSD”, the “soluble on expression in E. coli” value is reported as “soluble”.
For “MDEVNVIARITGVSRVRTFERDGREGRFISLDIMDATGSTTYTLWNNDVNLVEELGLKEGDAVKILWAQPRRRDDKVTLTHTSLTRVVPGLEHHHHHH”, the “soluble on expression in E. coli” value was “not soluble”.
For “MGSDKIHHHHHHMHQTLATSRKTSNACNVLALCTRDNPAILTIAHRGFWTATAENSLASVRAAVAAGVEMIEIDTQATADGRLVVIHDETLDRTTTGKGTVSALPFEVVRAAKLKAGAGGDGADVTDECVPTLEEVLEEARGRITVNIDTKFTRDLPQVMETVLRLGVEDQVLVKTDVDPEAERFEVLGSHWFGRIPHMPMFPVRKGKFAEDLRRIEALKAPMIEVKFTDIADLAEGRAEMERQNIRLWINSLDVSHCLDFNDTRALSNPEAVWGALAEAGTGAIQTDEVEAFTAWLKAGAGETGRAWTR”, the “soluble on expression in E. coli” value was “not soluble”.
For “MLNQSVRFLARRANSQIRRSNLLKTGSLAAQDRGFFFGKRREPRCDLKNQSIVQADGSRKSAWLGDKPLRHESFIGILTTYAGIRRGPTVGGKEMLGKRVMKNGKLEWEWITYEQAFEISDNVSQAIRKLGIEIGDKSNIGIYSKNRPEWVLSDMAIHNFSNVSVPIYDNIPNEDMHYITNLCEIPLMFVDSEDKTTQLIKDKTYLSKSLKYIVQFDKVSDEMKAMAESNNFQLWSFDEFVELGKKHEHRPHAPPTPETLATISFTSGTTGRPKGAMLTHLNLCSTTVACEEFEHVEGELDSYLSYLPLAHVYERHCTLAHFKIGSNFHNFLNKFVEVFFFFKRISSKVTKIFRRIGFSRGDPALLVEDIQALAPRTFACVPRVLGKIYKSVMSQVQDKPVKKMILNSAIAYKLYHYKMTGKATRDTLVDKYILHKIQMILGPNIKQFLIPAAKTDNSSMRFARGAFGIEILELYGLTETSGPTTIQLVGDMLGSVGPPISCTSIKLVDIAELGYFVDENGGEVLVKGHNVTSGYYKDPKATASAFTEDGFMKTGDIGKFTPEGTLQLIDRRDNVLKLPQGEFVAPDLTESLYISSKFVQQICVHGNKEKPWLVAVVVPDPEYLASHANLEHNIEGKTYEELCKIPALAEDVLHALIKFFIWVFAIHLTPIAFSPQNGLTTPTHKNKRTAIAQFFKKQIVEMFDRIEKEEEGTELTTKIENAH”, the “soluble on expression in E. coli” value was “not soluble”.
With “MSLVSIKDIARYCGVSAMTVSRALNNSDDIAEATKEKILKVCEELKYKPNSAAKSLITKKTNMIGLIIPDIANQYYANISKGVSSYIEKHGYGLILCNSNRKKPNEVKYLDFLSEGRVDGIIILPVKPRKEDYEDISRQIPMVMADNFAKGLEVNFVGIDNYAGAIKIITHMVNQGYKKIGVILGDKDSTASSERLNGYKKVLEDKGISYNEDIVIHSNSTFEDGFNIASILIEKGVDSIFAINDTVAMGVIKYCYEKGIKLPEELGLAGYDNIEQAAMLTIPLTTVDQDNKKIGTIAAKMLVDAIKGNAKKTEKIILEPTLVIRKSCGEEGHHHHHH” the “soluble on expression in E. coli” value was “soluble”.
